The target of experiment [1] is TRAK1/mScarlet fusion protein (wild type) (UniProt Q9UPV9). Nature of the experiment: co-IP; FLAG purification of Miro1/FP/FLAG/I3-01 synthetic cargo from hTERT RPE-1 cell lines co-expressing TRAK/mScarlet variants; immunoblot of the associated motor-adaptor components (kinesin, dynein, dynactin); also done after kinesin RNAi (fig. S4E).
In the next experiment the target is T1, kinesin-1, P33176.
T1 chain: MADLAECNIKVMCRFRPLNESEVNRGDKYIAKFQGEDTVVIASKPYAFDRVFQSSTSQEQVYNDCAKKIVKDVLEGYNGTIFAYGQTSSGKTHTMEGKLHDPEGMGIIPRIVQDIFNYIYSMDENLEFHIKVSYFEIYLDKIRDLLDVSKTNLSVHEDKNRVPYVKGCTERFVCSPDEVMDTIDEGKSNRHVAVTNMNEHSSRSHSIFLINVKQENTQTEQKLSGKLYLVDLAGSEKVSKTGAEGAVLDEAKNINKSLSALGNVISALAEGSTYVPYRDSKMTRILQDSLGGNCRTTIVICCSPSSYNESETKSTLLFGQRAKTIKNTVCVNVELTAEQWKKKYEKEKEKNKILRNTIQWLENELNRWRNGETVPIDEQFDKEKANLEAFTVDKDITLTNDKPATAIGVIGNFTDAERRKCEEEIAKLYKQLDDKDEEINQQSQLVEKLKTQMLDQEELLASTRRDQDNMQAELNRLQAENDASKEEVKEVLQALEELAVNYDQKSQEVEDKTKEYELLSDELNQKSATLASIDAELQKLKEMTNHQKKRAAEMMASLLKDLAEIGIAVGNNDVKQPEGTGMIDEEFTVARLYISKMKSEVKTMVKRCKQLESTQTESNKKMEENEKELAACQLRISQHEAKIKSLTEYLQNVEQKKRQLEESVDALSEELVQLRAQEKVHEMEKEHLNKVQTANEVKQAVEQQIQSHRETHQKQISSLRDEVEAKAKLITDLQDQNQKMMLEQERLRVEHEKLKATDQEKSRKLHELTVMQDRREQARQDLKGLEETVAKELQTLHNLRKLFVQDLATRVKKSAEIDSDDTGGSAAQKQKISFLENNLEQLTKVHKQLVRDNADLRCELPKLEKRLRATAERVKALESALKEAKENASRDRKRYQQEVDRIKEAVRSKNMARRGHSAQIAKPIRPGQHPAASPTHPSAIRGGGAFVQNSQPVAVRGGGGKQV
Kind of experiment: FLAG immunoprecipitation of synthetic cargo, immunoblot quantification (anti-KIF5B). Particulars: chain shown with the change; IP: flag; hTERT RPE-1 cells; n=4; parent: est. 1.0; read off a plot. (In western blotting, separated proteins are transferred to a membrane and probed.)

Molecule “kinesin-1 (from UniProt P33176 1-963) (natural protein)” displayed a fold enrichment versus TRAK2-driven synthetic cargo in experiment [1] of 20 fold.

B1: TRAK2/mScarlet fusion protein (wild type), O60296 F92A; M95A (protein)
chain: MSQSQNAIFTSPTGEENLMNSNHRDSESITDVCSNEDLPEVELVSLLEEQLPQYRLKVDTLFLYENQDWTQSPHQRQHASDALSPVLAEETARYAILGTDRVEQMTKTYNDIDMVTHLLAERDRDLELAARIGQALLKRNHVLSEQNESLEEQLGQAFDQVNQLQHELCKKDELLRIVSIASEESETDSSCSTPLRFNESFSLSQGLLQLEMLQEKLKELEEENMALRSKACHIKTETVTYEEKEQQLVSDCVKELRETNAQMSRMTEELSGKSDELIRYQEELSSLLSQIVDLQHKLKEHVIEKEELKLHLQASKDAQRQLTMELHELQDRNMECLGMLHESQEEIKELRSRSGPTAHLYFSQSYGAFTGESLAAEIEGTMRKKLSLDEESSLFKQKAQQKRVFDTVRIANDTRGRSISFPALLPIPGSNRSSVIMTAKPFESGLQQTEDKSLLNQGSSSEEVAGSSQKMGQPGPSGDSDLATALHRLSLRRQNYLSEKQFFAEEWQRKIQVLADQKEGVSGCVTPTESLASLCTTQSEITDLSSASCLRGFMPEKLQIVKPLEGSQTLYHWQQLAQPNLGTILDPRPGVITKGFTQLPGDAIYHISDLEEDEEEGITFQVQQPLEVEEKLSTSKPVTGIFLPPITSAGGPVTVATANPGKCLSCTNSTFTFTTCRILHPSDITQVTPSSGFPSLSCGSSGSSSSNTAVNSPALSYRLSIGESITNRRDSTTTFSSTMSLAKLLQERGISAKVYHSPISENPLQPLPKSLAIPSTPPNSPSHSPCPSPLPFEPRVHLSENFLASRPAETFLQEMYGLRPSRNPPDVGQLKMNLVDRLKRLGIARVVKNPGAQENGRCQEAEIGPQKPDSAVYLNSGSSLLGGLRRNQSLPVIMGSFAAPVCTSSPKMGVLKED
Turning to B1, the ratio to parent in the experiment with kinesin-1, P33176 was found to be 0.46.

B2: TRAK1/mScarlet fusion protein (wild type), Q9UPV9 L92A; F95A (protein)
chain: MALVFQFGQPVRAQPLPGLCHGKLIRTNACDVCNSTDLPEVEIISLLEEQLPHYKLRADTIYGYDHDDWLHTPLISPDANIDLTTEQIEETAKYALLCAERVGQMTKTYNDIDAVTRLLEEKERDLELAARIGQSLLKKNKTLTERNELLEEQVEHIREEVSQLRHELSMKDELLQFYTSAAEESEPESVCSTPLKRNESSSSVQNYFHLDSLQKKLKDLEEENVVLRSEASQLKTETITYEEKEQQLVNDCVKELRDANVQIASISEELAKKTEDAARQQEEITHLLSQIVDLQKKAKACAVENEELVQHLGAAKDAQRQLTAELRELEDKYAECMEMLHEAQEELKNLRNKTMPNTTSRRYHSLGLFPMDSLAAEIEGTMRKELQLEEAESPDITHQKRVFETVRNINQVVKQRSLTPSPMNIPGSNQSSAMNSLLSSCVSTPRSSFYGSDIGNVVLDNKTNSIILETEAADLGNDERSKKPGTPGTPGSHDLETALRRLSLRRENYLSERRFFEEEQERKLQELAEKGELRSGSLTPTESIMSLGTHSRFSEFTGFSGMSFSSRSYLPEKLQIVKPLEGSATLHHWQQLAQPHLGGILDPRPGVVTKGFRTLDVDLDEVYCLNDFEEDDTGDHISLPRLATSTPVQHPETSAHHPGKCMSQTNSTFTFTTCRILHPSDELTRVTPSLNSAPTPACGSTSHLKSTPVATPCTPRRLSLAESFTNTRESTTTMSTSLGLVWLLKERGISAAVYDPQSWDRAGRGSLLHSYTPKMAVIPSTPPNSPMQTPTSSPPSFEFKCTSPPYDNFLASKPASSILREVREKNVRSSESQTDVSVSNLNLVDKVRRFGVAKVVNSGRAHVPTLTEEQGPLLCGPPGPAPALVPRGLVPEGLPLRCPTVTSAIGGLQLNSGIRRNRSFPTMVGSSMQMKAPVTLTSGILMGAKLSKQTSLR
Turning to B2, the ratio to parent with kinesin-1, P33176 worked out at 0.02.

These data come from PMC13545989.
